Source: article PMC8699947, “Study of ALDH from Thermus thermophilus—Expression, Purification and Characterisation of the Non-Substrate Specific, Thermophilic Enzyme Displaying Both Dehydrogenase and Esterase Activity” (Cells, 2021)

Experiments:
[1] = biological target: ALDHTt, aldehyde dehydrogenase from Thermus thermophilus (Thermus thermophilus); experiment: SEC; HiLoad 16/60 Superdex 200 pg, 50 mM Tris-HCl pH 7.5, 5 mM β-mercaptoethanol, 150 mM NaCl, flow rate 1 mL/min; last step of the purification; no calibration told
purified protein [2] = substrate: O=Cc1ccccc1; experiment: purified protein; type: biochemical, Thermus thermophilus; details: 2 mM NAD+, 10 mM potassium phosphate pH 8, 50 °C
purified protein [3] = substrate: NC(=O)c1ccc[n+]([C@@H]2O[C@H](COP(=O)(O)OP(=O)(O)OC[C@H]3O[C@@H](n4cnc5c(N)ncnc54)[C@H](O)[C@@H]3O)[C@@H](O)[C@H]2O)c1; experiment: purified protein; type: biochemical, Thermus thermophilus; details: 2 mM hexanal, 10 mM potassium phosphate pH 8, 50 °C, varied: cofactor
purified protein [4] = substrate: O=Cc1ccc(C=O)cc1; experiment: purified protein; type: biochemical, Thermus thermophilus; details: 2 mM NAD+, 10 mM potassium phosphate pH 8, 50 °C
purified protein [5] = substrate: CCCCCC=O; experiment: purified protein; details: 2 mM NAD+, 10 mM potassium phosphate pH 8, 50 °C

ALDHTt, aldehyde dehydrogenase from Thermus thermophilus (enzyme)
stoichiometry N [1]: 4

B1: ALDHTt (Thermus thermophilus HB27) (protein)
chain: MRKAAGKYGNTLEFGHLVGGEEVLEGPLLERRNPSDREDVVARFPEADKDLVRKAALKAREAFAEWSRTPAPIRGQVLFNLVKILEREKPTLTRLMVREVGKTPKEAAGDVQEAIDTALFFASEGRRLYGQTVPSEMRDKELFTFRRPLGVVGIITAGNFPIAVPSWKLIPAVLTGNTVVWKPSEDAPTLSFVFAKLFEEAGLPPGVLNVVFGGGKGSTGQWMVELMDEGLFQKFAFTGSTQVGRWIGEVAGRNLIRPTLELGGKNPLVVMRDADLDLAVEGAWWSAFATGGQRCTSAGNILVDAPIYEEFKRRFLERVEATLVGNPLLHPEVTYGPFINERFFARWQEHYRVGEAEGARLLFGRGRITRENPYPRFLGDPEAGLYGWPTVWEVRPGTRLFTEEVFGPTINLVKVDGIEEAIAVANSTPYGLSSAIYTNHRHWAYLFKVGIRAGMTSINNATVGAEAHLPFGGVKASGNGGRESGIWVLEEYTYWHAVNEEYSGRLQLAQMDTGYVSPKAPTPWGEVLGL
notes: full-length, his-tagged (pET-22b(+)-ALDHTt), E. coli BL21(DE3); homotetramer with C-terminal tail
Km (purified protein [2]): 1520 ± 510 µM | Vmax (purified protein [2]): 0.0057 µmol/min | kcat (purified protein [2]): 1.46 ± 0.29 s⁻¹ | Km (purified protein [3]): 9.2 µM | Km (purified protein [4]): 380 ± 110 µM | Vmax (purified protein [4]): 0.047 µmol/min | kcat (purified protein [4]): 12.1 ± 2.5 s⁻¹ | Km (purified protein [5]): 990 ± 240 µM | Vmax (purified protein [5]): 0.027 µmol/min | kcat (purified protein [5]): 5.71 s⁻¹
